{
  "source": "patent US7301069B2",
  "about": "“Methods of protecting plants from pathogenic fungi and nematodes” (Pioneer Hi-Bred International, Inc., priority 2004, dated 2007)",
  "molecules": {"B1": {"name": "Kis10: Kistrin polypeptide of SEQ ID NO: 10 from Petunia x hybrida, predicted mature region, recombinantly expressed in E. coli as cleaved MBP fusion (protein)", "chain": "GSLKPSQCLPQCTRRCSQTQYHNACMLFCQKCCNKCLCVPPGFYGNKGVCPCYNNWKTKEGGPKCP", "modifications": "Petunia x hybrida; PEPTIDE (0)...(0) Kis10 mature peptide"}, "B2": {"name": "Kis6: Kistrin polypeptide of SEQ ID NO: 7 from Arabidopsis thaliana, predicted mature region, recombinantly expressed in E. coli as cleaved MBP fusion (protein, listed as Arabidopsis thaliana)", "chain": "GYAKKIDCGSACVARCRLSRRPRLCHRACGTCCYRCNCVPPGTYGNYDKCQCYASLTTHGGRRKCP", "modifications": "PEPTIDE (0)...(0) Kis6 mature peptide"}, "B3": {"name": "Kis5: Kistrin polypeptide of SEQ ID NO: 4 from Picea mariana (black spruce), predicted mature region, recombinantly expressed in E. coli as cleaved MBP fusion (protein, listed as Picea mariana)", "chain": "GSLRPSECGQRCSYRCSATSHKKPCMFFCQKCCAKCLCVPPGTFGNKQVCPCYNNWKTQQGGPKCP", "modifications": "PEPTIDE (0)...(0) Kis5 mature peptide"}, "B4": {"name": "Kis2: Kistrin polypeptide of SEQ ID NO: 1 from Arabidopsis thaliana, predicted mature region, recombinantly expressed in E. coli as cleaved MBP fusion (protein, listed as Arabidopsis thaliana)", "chain": "GKLKPQQCNSKCSFRCSATSHKKPCMFFCLKCCKKCLCVPPGTFGNKQTCPCYNNWKTKEGRPKCP", "modifications": "PEPTIDE (0)...(0) Kis2 mature peptide"}},
  "data": [
    {"tested_on": "C. elegans", "test": "C. elegans feeding bioassay", "type": "in vivo, Caenorhabditis elegans", "details": "cleaved peptides; concentrations based on Bradford (BSA standard), assume 100% cleavage of the MBP-Kistrin fusion", "description": "A number of polypeptides were recombinantly expressed in E. coli and then screened in a nematode bioassay.\nC. elegans feeding bioassays. Screening was performed in high throughput using E. coli expressed material, corresponding to the predicted mature regions of various small peptides. Expression of biologically functional polypeptides involved producing a fusion protein that included a maltose-binding protein (MBP) and a polypeptide of interest and subsequently cleaving the fusion protein at a protease recognition sequence to release the peptide of interest. DNA encoding the polypeptide of interest was fused to the C-terminus of the MelE gene in the E. coli expression vector pMAL (New England Biolabs; see, Guan et al., Gene 67:21-30 (1987); and Maina et al., Gene 74:365-73 (1988)). Sequences encoding the cleavage site of proteases Factor Xa or Genenase I were incorporated between the genes of MBP and the polypeptide of interest. A histidine tag was also added to the N-terminus of MBP.\nThe constructed plasmid vector was transformed into cells of E. coli XL-1 Blue and transformants were grown in 2YT medium containing 50 μg/mL carbenicillin to a cell density of OD600=0.6-0.9. Expression of the fusion protein was induced by addition of IPTG into the culture to a final concentration of 1 mM. Cells were grown for 4-16 hours to saturation before harvesting. Cells were harvested by centrifugation and then lysed with B-PER reagent (Pierce Chemicals, Rockford, Ill.) to obtain the fraction of soluble proteins. The fusion protein was purified from the cell lysate supernatant utilizing the histidine tag by incubating the cell lysate with Ni-NTA agarose resins for 20 minutes to 1 hour. The resins were washed with Tris buffer to remove all unbound proteins. Two-mercaptoethanol (10 mM) was included in the lysis and washing buffers to allow partial refolding of the proteins. Elution of the bound fusion protein was performed with buffer containing 20-40 mM […]. To release the polypeptide of interest, the purified fusion protein was incubated with Factor Xa or Genease I (RT, 8-24 hours). The cleaved protein sample was then used in nematode activity assays.\nHit characterization. Approximate IC50's (in μg/mL) for 4 hits determined from C. elegans bioassay using cleaved peptides. Concentrations were determined based on Bradford (BSA standard) and assume 100% cleavage of the MBP-Kistrin fusion.", "units": {"Approximate IC50 from C. elegans bioassay": "µg/mL"}, "values": [
      {"molecule": "B1", "Approximate IC50 from C. elegans bioassay": 30},
      {"molecule": "B2", "Approximate IC50 from C. elegans bioassay": 150},
      {"molecule": "B3", "Approximate IC50 from C. elegans bioassay": 75},
      {"molecule": "B4", "Approximate IC50 from C. elegans bioassay": 15}
    ]},
    {"tested_on": "Alternaria brassicicola", "test": "Anti-fungal bioassay (primary screening)", "type": "cell-based", "design": "key: 0 = no effect; 1 = partial growth inhibition; 2 = strong inhibition", "details": "protease-cleaved fusion protein samples, scored after 18 to 48 hours", "description": "(§1) The same polypeptides of Example 1 which were recombinantly expressed in E. Coli were also screened in an anti-fungal bioassay against five selected fungal pathogens.\n(§2) All fungal strains were grown and maintained on potato dextrose agar (PDA) plates, in a 30° C. incubator. These plates were kept in smaller secondary containers (per fungal strain), with moist paper towels to maintain high humidity. Spores were harvested in a quarter strength of potato dextrose broth (PDB) after about 2 weeks of growth, counted using a hemacytometer, and subsequently stored in small aliquots at −80° C.\n(§3) The frozen spores were diluted to the working concentration (determined empirically for each fungal strain), in a quarter strength of PDB, and 50 μL (per well) were added to sterile, flat-bottomed 96-well assay plates. The assay plates were incubated in the humid boxes at room temperature for 5-7 hours to allow the spores to germinate. Serial dilutions of purified, protease-cleaved fusion protein samples were then added to the assay plates, in 50 μL volumes, for a final assay volume of 100 μL per well. The assay plates were allowed to incubate overnight, in a humid box, at 30° C. Antifungal activity was scored after 18 to 48 hours, depending upon the strain of fungus.", "values": [
      {"molecule": "B1", "Antifungal score, Alternaria brassicicola": 0},
      {"molecule": "B2", "Antifungal score, Alternaria brassicicola": 0},
      {"molecule": "B3", "Antifungal score, Alternaria brassicicola": 0},
      {"molecule": "B4", "Antifungal score, Alternaria brassicicola": 0}
    ]},
    {"tested_on": "Fusarium oxysporum", "test": "Anti-fungal bioassay (primary screening)", "type": "cell-based", "design": "key: 0 = no effect; 1 = partial growth inhibition; 2 = strong inhibition", "details": "protease-cleaved fusion protein samples, scored after 18 to 48 hours", "description": "as §1, §2, §3", "values": [
      {"molecule": "B1", "Antifungal score, Fusarium oxysporum": 0},
      {"molecule": "B2", "Antifungal score, Fusarium oxysporum": 0},
      {"molecule": "B3", "Antifungal score, Fusarium oxysporum": 1},
      {"molecule": "B4", "Antifungal score, Fusarium oxysporum": 0}
    ]},
    {"tested_on": "Verticillium dahliae", "test": "Anti-fungal bioassay (primary screening)", "type": "cell-based", "design": "key: 0 = no effect; 1 = partial growth inhibition; 2 = strong inhibition", "details": "protease-cleaved fusion protein samples, scored after 18 to 48 hours", "description": "as §1, §2, §3", "values": [
      {"molecule": "B1", "Antifungal score, Verticillium dahliae": 0},
      {"molecule": "B2", "Antifungal score, Verticillium dahliae": 1},
      {"molecule": "B3", "Antifungal score, Verticillium dahliae": 2},
      {"molecule": "B4", "Antifungal score, Verticillium dahliae": 0}
    ]},
    {"tested_on": "Botrytis cinerea", "test": "Anti-fungal bioassay (primary screening)", "type": "cell-based", "design": "key: 0 = no effect; 1 = partial growth inhibition; 2 = strong inhibition", "details": "protease-cleaved fusion protein samples, scored after 18 to 48 hours", "description": "as §1, §2, §3", "values": [
      {"molecule": "B1", "Antifungal score, Botrytis cinerea": 0},
      {"molecule": "B2", "Antifungal score, Botrytis cinerea": 0},
      {"molecule": "B3", "Antifungal score, Botrytis cinerea": 0},
      {"molecule": "B4", "Antifungal score, Botrytis cinerea": 0}
    ]},
    {"tested_on": "Fusarium verticillioides", "test": "Anti-fungal bioassay (primary screening)", "type": "cell-based", "design": "key: 0 = no effect; 1 = partial growth inhibition; 2 = strong inhibition", "details": "protease-cleaved fusion protein samples, scored after 18 to 48 hours", "description": "as §1, §2, §3", "values": [
      {"molecule": "B1", "Antifungal score, Fusarium verticillioides": 0},
      {"molecule": "B2", "Antifungal score, Fusarium verticillioides": 0},
      {"molecule": "B3", "Antifungal score, Fusarium verticillioides": 0},
      {"molecule": "B4", "Antifungal score, Fusarium verticillioides": 0}
    ]}
  ]
}
